In paper PMC3585816:

Key:
[1] = tested on: Iron regulatory protein 1 (rIRP1); test: EMSA; conditions: aminoallyl-UTP-ATTO-680 incorporated in the labeled probe; competitor unmodified; 100 ng probe heated 3 min at 95 C, 120 ng His-IRP, 15 min room temperature, then 50 ug sodium heparin 10 min; 5% native acrylamide gel, 1x TBE; binding buffer …
[2] = tested on: Iron regulatory protein 2 (rIRP2); test: EMSA; conditions: aminoallyl-UTP-ATTO-680 incorporated in the labeled probe; competitor unmodified; 100 ng probe heated 3 min at 95 C, 120 ng His-IRP, 15 min room temperature, then 50 ug sodium heparin 10 min; 5% native acrylamide gel, 1x TBE; binding buffer …

Substance: FTL IRE WT
- binding signal (% of WT signal) [1]: 100
- binding signal (% of WT signal) [2]: 100
